Measurements taken from PMC9303947.

Target: Myo1^IQ12-FRET protein (CyPet and YPet separated by both Myo1 IQ motifs) (S. pombe)
Assay: FRET or BRET; Cam1 or ^ACECam1 titrated into 0.5 µM Myo1^IQ12-FRET protein in solution, absence of calcium; % change in donor CyPet fluorescence (excitation 435 nm); 140 mM KCl, 2 mM MgCl2, 20 mM MOPS pH 7.0, 2 mM EGTA; two binding events fitted

Substance	affinity of the first binding event [µM]	affinity of the second binding event [µM]
Cam1 (unacetylated Schizosaccharomyces pombe calmodulin) (from UniProt P05933 1-150) (natural protein)	< 0.1	1.47
^ACECam1 (amino-terminally acetylated Schizosaccharomyces pombe calmodulin) (from UniProt P05933 1-150) (natural protein)	< 0.1	0.68
